Biological target: microtubules (polymer of tubulin)
Experiment: single-molecule TIRF microscopy on microtubules

Sequence of microtubules (polymer of tubulin) (P68363 whole entry, chain 1 of 2): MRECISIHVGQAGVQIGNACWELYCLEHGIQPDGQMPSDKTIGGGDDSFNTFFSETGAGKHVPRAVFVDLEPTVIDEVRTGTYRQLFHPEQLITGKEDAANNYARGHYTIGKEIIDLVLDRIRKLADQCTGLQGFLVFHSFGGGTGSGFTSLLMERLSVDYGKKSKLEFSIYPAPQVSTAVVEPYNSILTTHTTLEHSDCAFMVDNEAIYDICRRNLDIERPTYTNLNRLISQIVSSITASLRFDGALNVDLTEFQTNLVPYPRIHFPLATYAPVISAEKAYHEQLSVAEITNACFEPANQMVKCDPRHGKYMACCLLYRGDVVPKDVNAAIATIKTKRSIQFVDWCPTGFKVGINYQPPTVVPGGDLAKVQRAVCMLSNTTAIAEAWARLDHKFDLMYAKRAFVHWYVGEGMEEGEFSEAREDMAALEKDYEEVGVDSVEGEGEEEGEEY
Sequence of microtubules (polymer of tubulin) (A8K068 whole entry, chain 2 of 2, further chain): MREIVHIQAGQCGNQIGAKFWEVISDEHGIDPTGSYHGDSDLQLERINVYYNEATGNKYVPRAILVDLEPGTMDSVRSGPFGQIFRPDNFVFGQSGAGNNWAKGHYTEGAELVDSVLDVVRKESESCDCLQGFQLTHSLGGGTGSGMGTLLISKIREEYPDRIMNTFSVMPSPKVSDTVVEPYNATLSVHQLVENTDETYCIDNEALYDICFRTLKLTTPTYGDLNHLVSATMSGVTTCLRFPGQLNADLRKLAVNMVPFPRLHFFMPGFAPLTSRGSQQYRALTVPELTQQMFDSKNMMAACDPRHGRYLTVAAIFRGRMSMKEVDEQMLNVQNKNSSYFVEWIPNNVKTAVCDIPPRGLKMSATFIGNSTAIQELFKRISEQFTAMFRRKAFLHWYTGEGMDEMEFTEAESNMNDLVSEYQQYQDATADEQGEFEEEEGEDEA

Substance: EB1_(FKBP) (human EB1 fused at its C-terminus to FKBP)
- dwell time: 53 ms
- mean dwell time: 0.054 s
